Laboratory results taken from a protein production outcome set (Wang et al. 2014).

Test: label from the status in PepcDB records

Question: Which protein production does the source give for “MTSSPTSTQESSTSWYLLLQQLIDGESLSRSQAAELMQGWLSEAVPPELSGAILTALNFKGVSADELTGMAEVLQSQSKMGTGENYSQLPITNSPFSIIDTCGTGGDGSSTFNISTAVAFVAAAYGVPVAKHGNRSASSLTGSADVLEALGVNLGASPEKVQAALQEVGITFLFAPGWHPALKAVATLRRTLRIRTVFNLLGPLVNPLRPTGQVVGLFTPKLLTTVAQALDNLGKQKAIVLHGRERLDEAGLGDLTDLAVLSDGELQLTTINPQEVGVTPAPIGALRGGDVQENAEILKAVLQGKGTQAQQDAVALNAALALQVAGAVPLLDHAQGVSVAKEILQTGTAWAKLAQLVYFLGN” here?
Answer: not failed

Question: Which protein production does the source give for “MEQHHVRSLLKPSAYPDPTGSVELVQTHVSYIFLTDNFAYKVKKPVDFGFLNFSTPDRRRFYCEEEVRLNRRLCPDIYLGVAEVRDTPAGAAFVGEGQVIDHAVKMKRLPADRMLDRLLSAGLAGEPEIRAVARVVGTFHLEAEHSSEIDAFGDLATINANWVENFQQTRPYCGITLSAGDHDFIRGWVERFMAERVDLFAARVGDGRIRDGNGDIHMENICLGADGRVCIFDCIEFNNRFRYGDTAADIAFLLMDFDFVLRPDLGAAFLDEYTRITNDASVVEMIDFYKVYRAFVRGKVESMRLSDPQIPENEKQAAAARASRYFRLARGYAVRQGLPPTLFITCGLTGTGKSRLSRELSLDLGLEIASSDVVRKELAGLRSTERPDQDYGAGIYTDRFSLLTYGELERRARVALEGGRSIVVDATFRRRADRERFGALARDAGATFVILHAVCPEPTIRSRLNSRQKDRSEPSDGTWEVYLRQKDEFDPPSDQEGNLLCIDTSDTASAMVDKVLHGLELLPCGKS” here?
Answer: failed

Question: For “MEGKEEDVRVGANKFPERQPIGTSAQSDKDYKEPPPAPFFEPGELSSWSFWRAGIAEFIATFLFLYITVLTVMGVKRSPNMCASVGIQGIAWAFGGMIFALVYCTAGISGGHINPAVTFGLFLARKLSLTRALYYIVMQCLGAICGAGVVKGFQPKQYQALGGGANTVAHGYTKGSGLGAEIIGTFVLVYTVFSATDAKRNARDSHVPILAPLPIGFAVFLVHLATIPITGTGINPARSLGAAIIYNKDHSWDDHWVFWVGPFIGAALAALYHVVVIRAIPFKSRS”, which protein production is on record?
Answer: failed

Question: For “MTKACEANKSFLQSAVDKKEYSRTLLVDDGSDEGARSAGAFRPTPHRKGHGGRSPRRDQSPRRDSPQTASRTRLSSELIADLLQKKRERPTRSSSFPKRDKTIARTDRSPRSSPLPRSMGPPPPVIASPSSRSWGERPVGVQILTRRV”, which protein production is on record?
Answer: failed

Question: With “MKKFLAIITLCLLFFSFTIGCERASLNRIGKDVYYMQIKGEGTIEKVDGRNLRNYTLPAYDEDGVKKQITFRSTKKENDHKLNKYAFLRLYVDQDDNSKNEISSIEVKSYEEIQKADLPEKVKDKFTIKLEHHHHHH” as the sequence, how does the protein production read?
Answer: not failed

Question: With “TKEHRAAARKIAGESFVLLKNEGLSPTLAPVLPLSPTGTIAVIGPLANTRSNMPGTWSVAAVLDKSPSLVEGLTEWVGNQGKILYAKGSNLIGDAAYEERATMFGRSLNRDNRTDQQLLDEALKIASQADVIVAALGESSEMSGESSSRTNLNLPDVQHTLLEALLKTGKPVVLVLFTGRPLVLNWEQEHVPAILNVWFGGSEAGPAIGDVLFGAVNPGGKLTMTFPKSVGQIPLYYAHKNTGRPLKEGKWFEKFRSNYLDVDNDALYPFGYGLSYTTF” as the sequence, how does the protein production read?
Answer: failed

Question: With “MSICPHIQQVFQNEKSKDGVLKTCNAARYILNHSVPKEKFLNTMKCGTCHEINSGATFMCLQCGFCGCWNHSHFLSHSKQIGHIFGINSNNGLLFCFKCEDYIGNIDLINDAILAKYWDDVCTKTMVPSMERRDGLSGLINMGSTCFMSSILQCLIHNPYFIRHSMSQIHSNNCKVRSPDKCFSCALDKIVHELYGALNTKQASSSSTSTNRQTGFIYLLTCAWKINQNLAGYSQQDAHEFWQFIINQIHQSYVLDLPNAKEVSRANNKQCECIVHTVFEGSLESSIVCPGCQNNSKTTIDPFLDLSLDIKDKKKLYECLDSFHKKEQLKDFNYHCGECNSTQDAIKQLGIHKLPSVLVLQLKRFEHLLNGSNRKLDDFIEFPTYLNMKNYCSTKEKDKHSENGKVPDIIYELIGIVSHKGTVNEGHYIAFCKISGGQWFKFNDSMVSSISQEEVLKEQAYLLFYTIRQVN” as the sequence, how does the protein production read?
Answer: failed

Question: For “MSRTIAETPRPAVASMSSGCIPPHHRPDTLKQRWGTPAAVCLLVTCLFAMTLLTTGCKPPRRTPPTLPDRPDMATVEQPVVPPATVDGKDLDAPQTPKERIALALRLLDDGGDGADPTQAVQLIEQDATTGYAPAQDLLARLSLEGYGTAKDPARAFALAIEAARQGLPDAQRLAGTMYTLGLGTARDLEQGMRWLREAADAGDGEAAAMVADYYRQGLGVERNDTEAFLWTHRAAERGVKRAALWLGLHYHYGVGTPADQKQAFALLRPFADEGDAEALTIIALLLHKGEGVAQDRKAALRYFEKGAAAGDPVAQLDLGVLYHQGDGVTRDMDKARGLFRQCAEGGNARCMTLYASMLEEGEGGPSDPAEALAWYMVASMAGDDDATPFLDDLRSRITAEQAAQGKVRATAIIRSLTASPAADEASRQSSGQTAGQASGHASGQTPESTSARTSAPVPSALPREAAGKRPTVLP”, which protein production is on record?
Answer: failed

Question: For “MSNGIVIIGSGFAARQLVKNIRKQDATIPLTLIAADSMDEYNKPDLSHVISQGQRADDLTRQTAGEFAEQFNLHLFPQTWVTDIDAEARVVKSQNNQWQYDKLVLATGASAFVPPVPGRELMLTLNSQQEYRACETQLRDARRVLIVGGGLIGSELAMDFCRAGKAVTLIDNAASILASLMPPEVSSRLQHRLTEMGVHLLLKSQLQGLEKTDSGIQATLDRQRNIEVDAVIAATGLRPETALARRAGLTINRGVCVDSYLQTSNTDIYALGDCAEINGQVLPFLQPIQLSAMVLAKNLLGNNTPLKLPAMLVKIKTPELPLHLAGETQRQDLRWQINTERQGMVARGVDDADQLRAFVVSEDRMKEAFGLLKTLPM”, which protein production is on record?
Answer: failed

Question: Which protein production does the source give for “MSAPTTFSVALHNETATAQLMADLALLVGPGDVITLTGDLGAGKTAAARAMIRYLADDEALEVPSPTFTLVQGYELPPFPVMHADLYRVEDESELEEIGLSPLPDATLVLIEWPERAPSALPEDRIDIALTHRPALGSNARAADITGYGKSAAQVARLKALREFLDASGYLDAMRRRMAGDASTRSYARLLRDDEIVILMNFPQRPDGAALYNGKSYSAAVHLAENVKPFVAIDEGLRAQGISAPAIHHADLDHGFLISEDFGSEGVIEGNPPRPIPERYEAATDVLAVLHGKTLPETLPLDGQSYAIPVFDTEAMLIEIGLMPEWYLPDRNAPLSEPKRAEFFAMWRELLKKPLAAPRTWIIRDYHSPNLIWLGMRTGIERVGVIDFQDTVLGPQSYDVVSLLQDARIDVPENLELTLLSRYIKARRAGDASFDPAGFAELYAIMSAQRNTRLLGTFARLNRRDGKPHYLRHQPRIWTYLQRSLAHPALSHLRDWYLANVPPPQRPSQEPAPEPPQGLEHHHHHH” here?
Answer: not failed

Question: With “MLPDVFRADTGSRSLIQAQSDAQAVLTWLAEHADRPATLAAYRKEAERLLLWLAPRRQTLAQVKREDVLDYRRFLASPHPAEQWLGPARPRSHPDWKPFSKPLSPASVEHSLTVLGALFAYLNDAGYLNGNPFKLLRRRGARKSAQEIERFLDADCWRHLQATLNGLPRGSDREIRHAERALWLFTLLYLTGARRAEAAAARACDLARRNGNWWWHVVGKGGVSARIPLSDELMDALARYRLSLGLPPQPAADEDTPLVCRVGSKGQAKPLSDKAIYLVCKEVFGRAQAAAPNEDIRAKLRAASTHWLRHTAASHQLEAGVPLLLVSQNLRHASIQTTRRYLHSEEDARHEASRLHKLKRDS” as the sequence, how does the protein production read?
Answer: failed

Question: Which protein production does the source give for “MLQMNLEELRRIQEEMSRSVVLEDLIPLEELEYVVGVDQAFISDEVVSCAVKLTFPELEVVDKAVRVEKVTFPYIPTFLMFREGEPAVNAVKGLVDDRAAIMVDGSGIAHPRRCGLATYIALKLRKPTVGITKKRLFGEMVEVEDGLWRLLDGSETIGYALKSCRRCKPIFISPGSYISPDSALELTRKCLKGYKLPEPIRIADKLTKEVKRELTPTSKLKLEHHHHHH” here?
Answer: failed

Question: With “SLGDQKPATIYAPTVRVTPNPAWPQVSWQLLVAKPSAARIIDSPRINVRPTPGELQVYHGAGWAQPATDMLEDSVVRAFEDSGKIAAVARIGAGIRSDYKLAIDVRRFESDYAGQSLPAATIELNAKLLHSSDQRVVASRTFTVARPSSSTDTAAVAAAFEQALTQVTTELVGWTLITGQQDSQTLPRAL” as the sequence, how does the protein production read?
Answer: not failed

Question: For “MKILVFGGTRFFGKKLVERLVSEGHDVTIGTRGKTEDNFGDTVKRVVLNRESRDALFQLAKEDWDVIYDNICFSPKEALYAVDAFKGKVKRYIYTSSLSVYSQKGRALVEADFNPEHYEIVIGDKEDFDYGEGKRLAEAVFFQKASFPVVAVRFPIVLGLDDYTKRLHFHINHIKNHQEIGISNGQAEIGFITSDEAAHFLEWVGVESDLTGPVNATSNGTYALNGFIKMLEEKIGELALVEEVTDDVDDSPFGIEKTYYLDNAKATEAGFVFNDLKVWLPALVTDILKENLEHHHHHH”, which protein production is on record?
Answer: failed

Question: Which protein production does the source give for “MPLTDTPPSVPQKPRRGRPRGAPDASLAHQSLIRAGLEHLTEKGYSSVGVDEILKAARVPKGSFYHYFRNKADFGLALIEAYDTYFARLLDQAFLDGSLAPLARLRLFTRMAEEGMARHGFRRGCLVGNLGQEMGALPDDFRAALIGVLETWQRRTAQLFREAQACGELSADHDPDALAEAFWIGWEGAILRAKLELRPDPLHSFTRTFGRHFVTRTQE” here?
Answer: not failed

Question: With “MSKMRFFALQELSNRKPLEITTPSNKLSDYYASHVFDRKKMQEYLPKEAYKAVVDATEKGTPISREMADLIANGMKSWAKSLNVTHYTHWFQPLTDGTAEKHDGFIEFGEDGEVIERFSGKLLIQQEPDASSFPNGGIRNTFEARGYTAWDGSSPAFVVDTTLCIPTIFISYTGEALDYKTPLLKALAAVDKAATEVCQLFDKNITRVFTNLGWEQEYFLVDTSLYNARPDLRLTGRTLMGHSSAKDQQLEDHYFGSIPPRVTAFMKELEIECHKLGIPVKTRHNEVAPNQFELAPIFENCNLANDHNQLVMDLMKRIARKHHFAVLFHEKPYNGVNGSGKHNNWSLCTDTGINLFAPGKNPKGNMLFLTFLVNVLMMVHKNQDLLRASIMSAGNSHRLGANEAPPAILSIFLGSQLSATLDEIVRQVTNSKMTPEEKTTLKLGIGRIPEILLDTTDRNRTSPFAFTGNRFEFRAAGSSANCAAAMIAINAAMANQLNEFKASVDKLMEEGIGKDEAIFRILKENIIASELIRFEGDGYSEEWKQEAARRGLTNICHVPEALMHYMDNQSRAVLIGERIFNETELACRLEVELEKYTMKVQIESRVLGDLAINHIVPIAVSYQNRLLENLCRMKEIFSEEEYEVMSADRKELIKEISHRVSAIKVLVRDMTEARKVANHKENFKEKAFAYEETVRPYLESIRDHIDHLEMEIDDEIWPLPKYRELLFTK” as the sequence, how does the protein production read?
Answer: not failed

Question: For “MNGGKTAVIVLGWNGAADTLACLASLAKVRQPAFTVILADNGSTDGTVGLVRQAFPEVEILELGRNLGFAAGNNAAFRSLRGRGFDRVVFLNNDTVVDPGFLQPLLDELQKPWVGIAAPKILYMDDPGRIWYAGGVLESATGLIEHTGIRQPDGPRFDTPEPVWYATGCCLAMRCRVFEEVGGFDERFRMYGEDVDLSMKVRERGLIVMYQPASRIWHRVSASSGGEMNLGKQLRKSGAAMMLFAKHGMIGGLVLYPLLLPFRALLGLLRFQFFRWTSSQEREEA”, which protein production is on record?
Answer: failed

Question: For “MWEPACKNRTRTLAGLAPLLASIQSPSPPSVVLRLDPSTRTQALCPHPATARGNPMSRIFITGSTDGLGLAAARTLISQGHDVVLHARSRQRAAAIADTSAAALSLVIGDLASAAETRSIADQVNAFGRMDAVIHNAGIYLERSRGETPEGHAKTLAVNVLAPYLLTAWITRPDRLIYLSSGMHRSGASTLDDIDWKRRPWNASQAYSESKLYIATLAALARHWPDALSNAVDPGWVPTKMGGAGAPDDLEMGHLTQTWLATSDEGAAKVSGGYWYHRQRREAAAEVGDVGFQEALVGRLAELTGVRLFAERG”, which protein production is on record?
Answer: failed
